Results as given in patent US20080247947A1, “High dose 111In-pentetreotide therapy of neuroendocrine tumors” (priority 2007, published 2008).
Entries after “also recorded” stand apart in the source; their conditions may differ.

How the values were obtained:
[1] = cited from earlier work
[2] = tested on: carcinoid syndrome, advanced disease; conditions: patients with advanced disease; cited from earlier work
[3] = tested on: carcinoid tumors; conditions: cited from earlier work
[4] = tested on: patients with progressive neuroendocrine tumors; experiment: Non-randomized trial: hematological, renal and hepatic toxicities by NCI common toxicities criteria; assay type: in vivo
Description: In a non-randomized trial, 32 patients (21 men and 11 women, from 16-83 years old (average 56 years old)) were tested. Among these patients, there were 25 Caucasions (78%), 2 Blacks (6%), 4 Hispanics (12.5%) and 1 other (3%). All patients had progressive neuroendocrine tumors (21 Carcinoma, 7 Islet Cell Carcinoma of the Pancreas, 1 Pituitary Adenoma, 1 Glucagonoma, and 1 Pheochromocytoma) and all had failed first line therapy (23 chemotherapy, 12 radiotherapy, and 28 surgery).
Fourteen patients received one therapy (ranging from 473.5 to 511.6 mCi, with an average of 489.2 mCi) and 18 patients received two treatments with the cumulative doses ranging from 955.1 to 1,006.1 mCi (average=982.8 mCi/patient). Patients were evaluated for evidence of hematological, renal and hepatic toxicities using NCI common toxicities criteria and followed for an average of 9 months (ranging from 1.7 to 17.2 months).
(§1) Patients were injected with ^111In-pentetreotide at an average dose of 489.2 mCi (ranging from 473.5 to 511.6 mCi) as an intravenous infusion in physiological saline using a specially designed IV pole to decrease radiation exposure to the personnel. The infusion took about 3 to 5 hours, in an outpatient setting. The amount of octreotide administered was 30 mg. Patients were evaluated for hematological, renal and hepatic toxicities using NCI common toxicities criteria on week 4, 5, 6, and 7 after treatment, and every three months thereafter. Patients were followed for an average of 8.69 months with a range of 1.7-17.2 months. 18 patients received a second treatment 10-12 weeks after the first therapy with an average cumulative dose of 982.8 mCi (ranging from 955.1 to 1006.1 mCi). These patients were evaluated for a clinical and metabolic responses beginning 4 weeks after their second therapy.

[5] = tested on: progressive neuroendocrine tumors; experiment: Non-randomized trial: clinical, metabolic and imaging response (RECIST) after two cycles; assay type: in vivo; conditions: 18 patients, two cycles of 500 mCi
From the text: Among these patients, seventeen (53%) had grade I or II hematological toxicities, while one patient had grade III thrombocytopenia with nadir mean of 5 weeks (ranging from 4 to 6 weeks) after therapy (FIG. 2). These toxicities were transient, lasting from 1 to 6 weeks (averaging 3 weeks). […] One patient had grad II liver toxicity which appeared 4 weeks after the therapy and resolved in week 5. […] Among the 18 patients (13 men and 5 women, from 41 to 83 years old (average age 59)), who were treated with two cycles of high dose (500 mCi) ^111In-pentetreotide, therapeutic efficacy of this treatment regimen is evident (FIG. 3). These patient had progressive neuroendocrine tumors and failed first-line therapy. According to the pre-therapy diagnostic ^111In-pentetreotide scan, these patients had grade 3 to grade 5 tumors. In this trial, each dose of ^111In-pentetreotide was infused over a period of 3 to 6 hours. The two treatments were spaced a few weeks (e.g., […]) apart. The patients were monitored for clinical, metabolic, and imaging responses based on using Response Evaluation Criteria in Solid Tumors (RECIST) criteria (Therasse P, Arbuck S G, Eisenhauer E A, et al. New guidelines to evaluate the response to treatment in solid tumors. European Organization for Research and Treatment of Cancer, National Cancer Institute of the United States, National Cancer Institute of Canada. Journal of the National Cancer Institute 2000; 92(3):205-16.).
as §1
The efficacy of ^111In-pentetreotide therapy was evaluated in 18 patients who received two cycles of therapy. The primary endpoint was clinical, metabolic and imaging response using RECIS criteria. […] Tumor image before and after treatment showing no progression (FIG. 6).

[6] = tested on: disseminated NETs; conditions: 16 patients, repeated doses 81-134 mCi, cited from earlier work
[7] = tested on: NETs; conditions: 180 mCi every 3 weeks for 10 occasions; cited from earlier work
[8] = 18 patients, double-dose treatments
[9] = 32 patients, one or two cycles of about 500 mCi

For `C[C@@H](O)[C@@H]1NC(=O)[C@H](CCCCN)NC(=O)[C@@H](Cc2c[nH]c3ccccc23)NC(=O)[C@H](Cc2ccccc2)NC(=O)[C@@H](NC(=O)[C@H](N)Cc2ccccc2)CSSC[C@@H](C(=O)N[C@H](CO)[C@@H](C)O)NC1=O` [octreotide], which in vivo half-life [1] is on record?
The in vivo half-life was 1.5 to 2 h.

And the “tumor stabilization, patients” value [2]?
The value was 50-55%.

For Interferon [Interferon (IFN)], which biochemical response rate ([3]; carcinoid tumors) is on record?
The biochemical response rate was 40%.

What about the tumor response rate ([3]; carcinoid tumors) of the same compound?
The tumor response rate was 12%.

What about the toxicity ([3]; fever, anorexia, weight loss, fatigue and myelosuppression) of the same compound?
The toxicity was “significant toxicity”.

What does the source list for “[^111In-DTPA-D-Phe1]-octreotide [^111In-pentetreotide]”?
nose bleeds ([4]; 4 weeks after treatment): One patient; patients with grade I or grade II hematological toxicities ([4]; 18 patients, double-dose (two cycles of 500 mCi)): 55%; duration of hematological toxicities [4, 8]: 1-6 weeks; grade III thrombocytopenia [4, 8]: one patient; nadir mean after therapy [4, 8]: 5 weeks; need for supportive therapy [4, 8]: None of the patients required supportive therapy; renal toxicity ([4]; 18 patients, double-dose treatments, follow-up 3.93 to 17.23 months): No renal toxicity was observed; grade II liver toxicities ([4]; 18 patients, double-dose treatments, appeared 4 weeks after therapy, resolved on week 5): One patient; renal toxicity ([4]; 32 patients, follow-up 1.7 to 17.2 months): no evidence of renal toxicity; also recorded: No significant short or long term renal toxicity; need for supportive therapy ([4]; 32 patients, one or two cycles): None of the patients required supportive therapy; duration of hematological toxicities (average) [4, 9]: 3 weeks; grade III thrombocytopenia [4, 9]: one patient; nadir mean of hematological toxicity after therapy [4, 9]: 5 weeks; patients with grade I or II hematological toxicities ([4]; 32 patients, one or two cycles of about 500 mCi, intravenous infusion): 53%; grade II liver toxicity ([4]; 32 patients, appeared 4 weeks after therapy, resolved in week 5): One patient; deaths during the course of the study ([4]; 32 patients, deaths attributed to tumor burden): Two patients died; maximum tolerated dose ([4]; average cumulative dose 982.8 mCi, average follow up 8.69 months): maximum tolerated dose has not been reached; overall treatment associated toxicity ([4]; following one or two cycles): no evidence of significant treatment associated toxicity; clinical response (functional living index questionnaire and physical examination), patients [5]: 84%; metabolic response (25% or more decline in chromogranin or other markers), patients [5]: 72%; patients achieving stable disease by imaging criteria [5]: 88%; patients achieving stable disease by imaging criteria (count) [5]: sixteen out of the 18; patients with sustained benefit ([6]; 18 months after the treatments): 31%; patients with some short term benefits [6]: up to 70%; safety of repeated doses [7]: demonstrated the safety
